{"source": "patent US20190160076A1", "about": "(University of California, published 2019)", "biological_target": "T1, V5-tagged human lipoprotein lipase (LPL) (human, UniProt P06858 28-475)", "T1 construct": "also called V5-tagged human LPL; V5-LPL; not shown: V5 tag", "T1 sequence": "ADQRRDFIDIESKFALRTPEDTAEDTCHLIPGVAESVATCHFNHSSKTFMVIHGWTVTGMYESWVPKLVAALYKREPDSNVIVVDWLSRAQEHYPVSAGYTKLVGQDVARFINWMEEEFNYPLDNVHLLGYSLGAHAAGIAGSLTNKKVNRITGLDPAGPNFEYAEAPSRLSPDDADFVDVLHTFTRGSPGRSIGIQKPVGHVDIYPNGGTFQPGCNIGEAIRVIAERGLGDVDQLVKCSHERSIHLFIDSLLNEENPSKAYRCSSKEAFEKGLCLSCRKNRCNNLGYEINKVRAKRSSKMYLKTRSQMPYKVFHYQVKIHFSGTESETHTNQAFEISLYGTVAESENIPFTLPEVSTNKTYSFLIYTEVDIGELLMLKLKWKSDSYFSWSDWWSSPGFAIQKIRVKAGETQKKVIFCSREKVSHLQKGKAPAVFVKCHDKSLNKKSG", "assay": "cell-based LPL binding, western blot of CHO cell extracts (FIG. 4A)", "description": "FIG. 4A-B. GPIHBP1 Autoantibodies Block the Binding of LPL to GPIHBP1. […] The LPL used in these experiments was V5-tagged. Western blots were performed with a goat antibody against the S-protein tag (Abcam, 5 μg/ml), followed by an IRDye 680-donkey anti-goat IgG (LI_COR, 1:2000; GPIHBP1) and an IRDye 800-V5 antibody (1:500; LPL). Actin was used as a loading control, and was detected with a rabbit antibody against actin (Abcam, 5 μg/ml) followed by an IRDye 800-donkey anti-rabbit IgG (LI-COR, 1:2000; lower panel). […] In lane 5, pre-incubation of cells with plasma 38 (1:20) abolished LPL binding. […] In lane 2, a mutant GPIHBP1 (GPIHBP1-W109S), which lacks the ability to bind LPL, was included as a control. […] DNA was stained with DAPI (fourth column).\nExpression vectors for S-protein-tagged wild-type (wt) GPIHBP1, GPIHBP1-G175R, and GPIHBP1-W109S (or the empty vector) were transfected into CHO pgsA-745 cells or human umbilical vein endothelial cells (HUVEC). After 1 day, the cells were washed three times in PBS and incubated for 1 h at 4° C. with V5-tagged human LPL (900 ng/well). Then the cells were washed six times in PBS, and cell lysates were collected in RIPA buffer (Sigma) containing a protease inhibitor cocktail (Roche). […]"}
{"binder": "S-protein-tagged wild-type human GPIHBP1 (GPIHBP1-wt) expressed on transfected CHO pgsA-745 cells (receptor, also called GPIHBP1-transfected cells; GPIHBP1-expressing cells; not shown: S-protein tag) QTQQEEEEEDEDHGPDDYDEEDEDEVEEEETNRLPGGRSRVLLRCYTCKSLPRDERCNLTQNCSHGQTCTTLIAHGNTESGLLTTHSTWCTDSCQPITKTVEGTQVTMTCCQSSLCNVPPWQSSRVQDPTG", "values": [{"measurement": "binding result", "result": "binds"}]}
